# Data taken from patent US20150087577A1 (POLYPHOR, published 2015).
# Bridges are numbered along the chain shown (N, C = ends). [ ]: non-standard residue; d: D form. Phe(4-F) = N[C@@H](Cc1ccc(F)cc1)C(=O)O; 2Nal = N[C@@H](Cc1ccc2ccccc2c1)C(=O)O; Cit = NC(=O)NCCC[C@H](N)C(=O)O
# Biological target: human CXCR4 (human, UniProt P61073 1-352)
# Experiment: cell-based or functional assay
# Sequence of human CXCR4 (P61073 whole entry): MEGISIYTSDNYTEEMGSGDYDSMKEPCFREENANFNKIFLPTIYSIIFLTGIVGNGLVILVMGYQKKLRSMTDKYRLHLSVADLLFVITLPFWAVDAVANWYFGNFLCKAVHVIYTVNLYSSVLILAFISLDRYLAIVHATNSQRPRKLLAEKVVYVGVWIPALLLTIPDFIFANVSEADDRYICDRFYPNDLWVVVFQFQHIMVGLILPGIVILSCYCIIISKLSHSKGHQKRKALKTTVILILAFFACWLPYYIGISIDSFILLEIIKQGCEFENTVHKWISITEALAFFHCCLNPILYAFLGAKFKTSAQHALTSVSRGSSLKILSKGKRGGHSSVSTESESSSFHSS
Binder,IC50 (nM) Ca2+ assay (method 2),IC50 (nM) Ca2+ assay (method 1)
cyclo(YRWCRG[dP]RR[2Nal]CYQK[dP]P) (disulfide 4-11; SMILES N=C(N)NCCC[C@@H]1NC(=O)[C@@H]2CSSC[C@H](NC(=O)[C@H](Cc3ccc4ccccc4c3)NC(=O)[C@H](CCCNC(=N)N)NC(=O)[C@H](CCCNC(=N)N)NC(=O)[C@H]3CCCN3C(=O)CNC1=O)C(=O)N[C@@H](Cc1ccc(O)cc1)C(=O)N[C@@H](CCC(N)=O)C(=O)N[C@@H](CCCCN)C(=O)N1CCC[C@@H]1C(=O)N1CCC[C@H]1C(=O)N[C@@H](Cc1ccc(O)cc1)C(=O)N[C@@H](CCCNC(=N)N)C(=O)N[C@@H](Cc1c[nH]c3ccccc13)C(=O)N2) [Example 73],8.8 nM,–
cyclo(YRPCRG[dP]RR[2Nal]CYQK[dP]P) (disulfide 4-11; SMILES N=C(N)NCCC[C@@H]1NC(=O)[C@@H]2CSSC[C@H](NC(=O)[C@H](Cc3ccc4ccccc4c3)NC(=O)[C@H](CCCNC(=N)N)NC(=O)[C@H](CCCNC(=N)N)NC(=O)[C@H]3CCCN3C(=O)CNC1=O)C(=O)N[C@@H](Cc1ccc(O)cc1)C(=O)N[C@@H](CCC(N)=O)C(=O)N[C@@H](CCCCN)C(=O)N1CCC[C@@H]1C(=O)N1CCC[C@H]1C(=O)N[C@@H](Cc1ccc(O)cc1)C(=O)N[C@@H](CCCNC(=N)N)C(=O)N1CCC[C@H]1C(=O)N2) [Example 74],19.5 nM,–
cyclo(YR[Cit]VRRR[2Nal]FY[Cit]K[dP]P) (SMILES CC(C)[C@@H]1NC(=O)[C@H](CCCNC(N)=O)NC(=O)[C@H](CCCNC(=N)N)NC(=O)[C@H](Cc2ccc(O)cc2)NC(=O)[C@@H]2CCCN2C(=O)[C@H]2CCCN2C(=O)[C@H](CCCCN)NC(=O)[C@H](CCCNC(N)=O)NC(=O)[C@H](Cc2ccc(O)cc2)NC(=O)[C@H](Cc2ccccc2)NC(=O)[C@H](Cc2ccc3ccccc3c2)NC(=O)[C@H](CCCNC(=N)N)NC(=O)[C@H](CCCNC(=N)N)NC(=O)[C@H](CCCNC(=N)N)NC1=O) [Example 4],–,2540 nM
cyclo(YRECRG[dP]RR[2Nal]CYQK[dP]P) (disulfide 4-11; SMILES N=C(N)NCCC[C@@H]1NC(=O)[C@@H]2CSSC[C@H](NC(=O)[C@H](Cc3ccc4ccccc4c3)NC(=O)[C@H](CCCNC(=N)N)NC(=O)[C@H](CCCNC(=N)N)NC(=O)[C@H]3CCCN3C(=O)CNC1=O)C(=O)N[C@@H](Cc1ccc(O)cc1)C(=O)N[C@@H](CCC(N)=O)C(=O)N[C@@H](CCCCN)C(=O)N1CCC[C@@H]1C(=O)N1CCC[C@H]1C(=O)N[C@@H](Cc1ccc(O)cc1)C(=O)N[C@@H](CCCNC(=N)N)C(=O)N[C@@H](CCC(=O)O)C(=O)N2) [Example 75],3.5 nM,–
cyclo(YR[Cit]CRG[dP][Phe(4-F)]R[2Nal]CYQK[dP]P) (disulfide 4-11; SMILES N=C(N)NCCC[C@@H]1NC(=O)[C@@H]2CSSC[C@H](NC(=O)[C@H](Cc3ccc4ccccc4c3)NC(=O)[C@H](CCCNC(=N)N)NC(=O)[C@H](Cc3ccc(F)cc3)NC(=O)[C@H]3CCCN3C(=O)CNC1=O)C(=O)N[C@@H](Cc1ccc(O)cc1)C(=O)N[C@@H](CCC(N)=O)C(=O)N[C@@H](CCCCN)C(=O)N1CCC[C@@H]1C(=O)N1CCC[C@H]1C(=O)N[C@@H](Cc1ccc(O)cc1)C(=O)N[C@@H](CCCNC(=N)N)C(=O)N[C@@H](CCCNC(N)=O)C(=O)N2) [Example 76],5.6 nM,–
cyclo(YR[Cit]CRG[dP]RR[2Nal]CYNK[dP]P) (disulfide 4-11; SMILES N=C(N)NCCC[C@@H]1NC(=O)[C@@H]2CSSC[C@H](NC(=O)[C@H](Cc3ccc4ccccc4c3)NC(=O)[C@H](CCCNC(=N)N)NC(=O)[C@H](CCCNC(=N)N)NC(=O)[C@H]3CCCN3C(=O)CNC1=O)C(=O)N[C@@H](Cc1ccc(O)cc1)C(=O)N[C@@H](CC(N)=O)C(=O)N[C@@H](CCCCN)C(=O)N1CCC[C@@H]1C(=O)N1CCC[C@H]1C(=O)N[C@@H](Cc1ccc(O)cc1)C(=O)N[C@@H](CCCNC(=N)N)C(=O)N[C@@H](CCCNC(N)=O)C(=O)N2) [Example 77],7 nM,–
cyclo(YR[Cit]CRG[dP]RR[2Nal]CYDK[dP]P) (disulfide 4-11; SMILES N=C(N)NCCC[C@@H]1NC(=O)[C@@H]2CSSC[C@H](NC(=O)[C@H](Cc3ccc4ccccc4c3)NC(=O)[C@H](CCCNC(=N)N)NC(=O)[C@H](CCCNC(=N)N)NC(=O)[C@H]3CCCN3C(=O)CNC1=O)C(=O)N[C@@H](Cc1ccc(O)cc1)C(=O)N[C@@H](CC(=O)O)C(=O)N[C@@H](CCCCN)C(=O)N1CCC[C@@H]1C(=O)N1CCC[C@H]1C(=O)N[C@@H](Cc1ccc(O)cc1)C(=O)N[C@@H](CCCNC(=N)N)C(=O)N[C@@H](CCCNC(N)=O)C(=O)N2) [Example 78],11 nM,–
cyclo(YR[Cit]CRG[dP]RR[2Nal]CYKK[dP]P) (disulfide 4-11; SMILES N=C(N)NCCC[C@@H]1NC(=O)[C@@H]2CSSC[C@H](NC(=O)[C@H](Cc3ccc4ccccc4c3)NC(=O)[C@H](CCCNC(=N)N)NC(=O)[C@H](CCCNC(=N)N)NC(=O)[C@H]3CCCN3C(=O)CNC1=O)C(=O)N[C@@H](Cc1ccc(O)cc1)C(=O)N[C@@H](CCCCN)C(=O)N[C@@H](CCCCN)C(=O)N1CCC[C@@H]1C(=O)N1CCC[C@H]1C(=O)N[C@@H](Cc1ccc(O)cc1)C(=O)N[C@@H](CCCNC(=N)N)C(=O)N[C@@H](CCCNC(N)=O)C(=O)N2) [Example 79],2.4 nM,–
cyclo(YR[Cit]CRG[dP]RR[2Nal]CYAK[dP]P) (disulfide 4-11; SMILES C[C@@H]1NC(=O)[C@H](Cc2ccc(O)cc2)NC(=O)[C@@H]2CSSC[C@H](NC(=O)[C@H](CCCNC(N)=O)NC(=O)[C@H](CCCNC(=N)N)NC(=O)[C@H](Cc3ccc(O)cc3)NC(=O)[C@@H]3CCCN3C(=O)[C@H]3CCCN3C(=O)[C@H](CCCCN)NC1=O)C(=O)N[C@@H](CCCNC(=N)N)C(=O)NCC(=O)N1CCC[C@@H]1C(=O)N[C@@H](CCCNC(=N)N)C(=O)N[C@@H](CCCNC(=N)N)C(=O)N[C@@H](Cc1ccc3ccccc3c1)C(=O)N2) [Example 80],2.9 nM,–
cyclo(YR[Cit]CRG[dP]RR[2Nal]CYSK[dP]P) (disulfide 4-11; SMILES N=C(N)NCCC[C@@H]1NC(=O)[C@@H]2CSSC[C@H](NC(=O)[C@H](Cc3ccc4ccccc4c3)NC(=O)[C@H](CCCNC(=N)N)NC(=O)[C@H](CCCNC(=N)N)NC(=O)[C@H]3CCCN3C(=O)CNC1=O)C(=O)N[C@@H](Cc1ccc(O)cc1)C(=O)N[C@@H](CO)C(=O)N[C@@H](CCCCN)C(=O)N1CCC[C@@H]1C(=O)N1CCC[C@H]1C(=O)N[C@@H](Cc1ccc(O)cc1)C(=O)N[C@@H](CCCNC(=N)N)C(=O)N[C@@H](CCCNC(N)=O)C(=O)N2) [Example 81],4.9 nM,–
cyclo(YR[Cit]CRG[dP]RR[2Nal]CYLK[dP]P) (disulfide 4-11; SMILES CC(C)C[C@@H]1NC(=O)[C@H](Cc2ccc(O)cc2)NC(=O)[C@@H]2CSSC[C@H](NC(=O)[C@H](CCCNC(N)=O)NC(=O)[C@H](CCCNC(=N)N)NC(=O)[C@H](Cc3ccc(O)cc3)NC(=O)[C@@H]3CCCN3C(=O)[C@H]3CCCN3C(=O)[C@H](CCCCN)NC1=O)C(=O)N[C@@H](CCCNC(=N)N)C(=O)NCC(=O)N1CCC[C@@H]1C(=O)N[C@@H](CCCNC(=N)N)C(=O)N[C@@H](CCCNC(=N)N)C(=O)N[C@@H](Cc1ccc3ccccc3c1)C(=O)N2) [Example 82],4.8 nM,–
cyclo(YR[Cit]CRG[dP]RR[2Nal]CYMK[dP]P) (disulfide 4-11; SMILES CSCC[C@@H]1NC(=O)[C@H](Cc2ccc(O)cc2)NC(=O)[C@@H]2CSSC[C@H](NC(=O)[C@H](CCCNC(N)=O)NC(=O)[C@H](CCCNC(=N)N)NC(=O)[C@H](Cc3ccc(O)cc3)NC(=O)[C@@H]3CCCN3C(=O)[C@H]3CCCN3C(=O)[C@H](CCCCN)NC1=O)C(=O)N[C@@H](CCCNC(=N)N)C(=O)NCC(=O)N1CCC[C@@H]1C(=O)N[C@@H](CCCNC(=N)N)C(=O)N[C@@H](CCCNC(=N)N)C(=O)N[C@@H](Cc1ccc3ccccc3c1)C(=O)N2) [Example 83],3.7 nM,–
cyclo(YR[Cit]CRG[dP]RR[2Nal]CYQN[dP]P) (disulfide 4-11; SMILES N=C(N)NCCC[C@@H]1NC(=O)[C@@H]2CSSC[C@H](NC(=O)[C@H](Cc3ccc4ccccc4c3)NC(=O)[C@H](CCCNC(=N)N)NC(=O)[C@H](CCCNC(=N)N)NC(=O)[C@H]3CCCN3C(=O)CNC1=O)C(=O)N[C@@H](Cc1ccc(O)cc1)C(=O)N[C@@H](CCC(N)=O)C(=O)N[C@@H](CC(N)=O)C(=O)N1CCC[C@@H]1C(=O)N1CCC[C@H]1C(=O)N[C@@H](Cc1ccc(O)cc1)C(=O)N[C@@H](CCCNC(=N)N)C(=O)N[C@@H](CCCNC(N)=O)C(=O)N2) [Example 84],3.9 nM,–
cyclo(YR[Cit]VRRR[2Nal]VY[Cit]K[dP]P) (SMILES CC(C)[C@@H]1NC(=O)[C@H](CCCNC(N)=O)NC(=O)[C@H](CCCNC(=N)N)NC(=O)[C@H](Cc2ccc(O)cc2)NC(=O)[C@@H]2CCCN2C(=O)[C@H]2CCCN2C(=O)[C@H](CCCCN)NC(=O)[C@H](CCCNC(N)=O)NC(=O)[C@H](Cc2ccc(O)cc2)NC(=O)[C@H](C(C)C)NC(=O)[C@H](Cc2ccc3ccccc3c2)NC(=O)[C@H](CCCNC(=N)N)NC(=O)[C@H](CCCNC(=N)N)NC(=O)[C@H](CCCNC(=N)N)NC1=O) [Example 6],–,1930 nM
